Our source for the proportion of SAMS peptide phosphotransferase activity bound to the peptide affinity column with a single pass and proportion of SAMS peptide phosphotransferase activity bound to the column with recycling values is patent publication EP0873354B1.

The target of experiment [1] is rat liver AMPK α1 isoform (affinity purified α1 AMPK, native enzyme) (rat) (UniProt P54645). As to the kind of experiment: peptide substrate affinity chromatography of rat liver preparations, single pass.
UniProt P54645, sequence (P54645 whole entry, form in doubt, chain 1 of 2, canonical isoform): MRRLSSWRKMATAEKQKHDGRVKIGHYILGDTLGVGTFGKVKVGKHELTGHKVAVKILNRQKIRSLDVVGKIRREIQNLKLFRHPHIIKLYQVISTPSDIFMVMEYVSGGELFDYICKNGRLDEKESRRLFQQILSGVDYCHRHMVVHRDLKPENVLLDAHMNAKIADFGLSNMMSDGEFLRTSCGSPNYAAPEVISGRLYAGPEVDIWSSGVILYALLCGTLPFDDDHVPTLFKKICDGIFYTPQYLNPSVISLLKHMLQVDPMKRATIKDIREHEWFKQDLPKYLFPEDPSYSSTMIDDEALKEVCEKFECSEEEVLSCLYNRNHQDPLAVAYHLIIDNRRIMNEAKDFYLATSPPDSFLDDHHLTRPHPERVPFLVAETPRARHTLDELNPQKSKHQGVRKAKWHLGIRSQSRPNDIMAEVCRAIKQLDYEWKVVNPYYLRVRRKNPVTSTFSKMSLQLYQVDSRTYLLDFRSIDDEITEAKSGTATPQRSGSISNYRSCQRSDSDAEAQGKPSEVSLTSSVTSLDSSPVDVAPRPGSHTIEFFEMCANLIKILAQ
UniProt P54645, sequence (P80385 whole entry, form in doubt, chain 2 of 2, further chain, canonical isoform): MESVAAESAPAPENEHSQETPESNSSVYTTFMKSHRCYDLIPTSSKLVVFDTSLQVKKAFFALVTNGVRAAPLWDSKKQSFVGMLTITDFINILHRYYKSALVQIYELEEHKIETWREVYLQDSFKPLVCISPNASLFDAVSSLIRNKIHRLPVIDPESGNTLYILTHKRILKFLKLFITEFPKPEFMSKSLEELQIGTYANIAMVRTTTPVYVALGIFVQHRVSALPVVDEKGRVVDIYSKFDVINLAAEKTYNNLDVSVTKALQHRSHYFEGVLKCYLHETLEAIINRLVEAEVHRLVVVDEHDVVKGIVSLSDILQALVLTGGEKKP
Experiment [2] has the same target. Briefly: peptide substrate affinity chromatography of rat liver preparations, with recycling.

With ADR1 (222-234)P229 peptide, the proportion of SAMS peptide phosphotransferase activity bound to the peptide affinity column with a single pass in experiment [1] is 90 to 92%. In experiment [2], this substance had a proportion of SAMS peptide phosphotransferase activity bound to the column with recycling of 94%.
